The values below come from US20250361268A1, “NOVEL ANTI-INFLAMMATORY PEPTIDE AND USE THEREOF” (NOVACELL TECHNOLOGY INC., priority 2022, published 2025).

The target of assay [1] is T1, formyl peptide receptor 2 (FPR2) (UniProt P25090 1-351, limits assumed).
T1 sequence (looked up): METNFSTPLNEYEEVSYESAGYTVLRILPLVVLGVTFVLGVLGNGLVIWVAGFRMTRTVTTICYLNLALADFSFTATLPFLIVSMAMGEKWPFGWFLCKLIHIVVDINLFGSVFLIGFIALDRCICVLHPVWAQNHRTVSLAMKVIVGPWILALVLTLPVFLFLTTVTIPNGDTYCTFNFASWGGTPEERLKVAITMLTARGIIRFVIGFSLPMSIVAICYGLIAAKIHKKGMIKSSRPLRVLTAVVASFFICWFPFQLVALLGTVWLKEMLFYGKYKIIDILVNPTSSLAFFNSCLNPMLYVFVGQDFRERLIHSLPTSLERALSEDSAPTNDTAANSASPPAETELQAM
As to the kind of experiment: cell-based or functional assay.

The target of the next assay is T2, FPR1 (UniProt P21462 1-350, limits assumed).
T2 sequence (looked up): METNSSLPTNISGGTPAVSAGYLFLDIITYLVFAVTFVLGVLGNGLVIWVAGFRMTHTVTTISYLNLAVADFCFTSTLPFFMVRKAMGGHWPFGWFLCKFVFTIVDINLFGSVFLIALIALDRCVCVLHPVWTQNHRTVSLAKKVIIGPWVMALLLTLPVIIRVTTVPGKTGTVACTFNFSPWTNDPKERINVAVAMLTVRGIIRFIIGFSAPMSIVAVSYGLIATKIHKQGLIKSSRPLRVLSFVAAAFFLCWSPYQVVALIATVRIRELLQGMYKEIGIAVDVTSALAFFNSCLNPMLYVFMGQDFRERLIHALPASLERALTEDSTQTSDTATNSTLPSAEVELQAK
Briefly: cell-based or functional assay.

B1: peptide of SEQ ID NO 70 (peptide)
peptide: MKYKPM
HELM: PEPTIDE1{M.K.Y.K.P.[dM].[am]}$$$$V2.0; N-terminus assumed
SMILES: CSCC[C@H](N)C(=O)N[C@@H](CCCCN)C(=O)N[C@@H](Cc1ccc(O)cc1)C(=O)N[C@@H](CCCCN)C(=O)N1CCC[C@H]1C(=O)N[C@H](CCSC)C(N)=O
Turning to B1, the “EC50 for [Ca2+]” value is < 0.01 µM in assay [1] and > 10 µM with FPR1.

B2: peptide of SEQ ID NO 74 (peptide)
peptide: RWRYKPM
HELM: PEPTIDE1{R.W.R.Y.K.P.[dM].[am]}$$$$V2.0; N-terminus assumed
SMILES: CSCC[C@@H](NC(=O)[C@@H]1CCCN1C(=O)[C@H](CCCCN)NC(=O)[C@H](Cc1ccc(O)cc1)NC(=O)[C@H](CCCNC(=N)N)NC(=O)[C@H](Cc1c[nH]c2ccccc12)NC(=O)[C@@H](N)CCCNC(=N)N)C(N)=O
Consider B2, for which the figures for the “EC50 for [Ca2+]” value (in assay [1]; in the assay with FPR1) were < 0.01 µM and > 10 µM, respectively.

B3: peptide of SEQ ID NO 78 (peptide)
peptide: RWRYWYM
HELM: PEPTIDE1{[ac].R.W.R.Y.W.Y.[dM].[am]}$$$$V2.0
SMILES: CSCC[C@@H](NC(=O)[C@H](Cc1ccc(O)cc1)NC(=O)[C@H](Cc1c[nH]c2ccccc12)NC(=O)[C@H](Cc1ccc(O)cc1)NC(=O)[C@H](CCCNC(=N)N)NC(=O)[C@H](Cc1c[nH]c2ccccc12)NC(=O)[C@H](CCCNC(=N)N)NC(C)=O)C(N)=O
On to B3, for which the entries for the “EC50 for [Ca2+]” value (in assay [1]; with FPR1) were < 0.01 µM and > 10 µM, respectively.

B4: peptide of SEQ ID NO 81 (peptide)
peptide: RMRYWYM
HELM: PEPTIDE1{R.M.R.Y.W.Y.[dM].[am]}$$$$V2.0; N-terminus assumed
SMILES: CSCC[C@H](NC(=O)[C@@H](N)CCCNC(=N)N)C(=O)N[C@@H](CCCNC(=N)N)C(=O)N[C@@H](Cc1ccc(O)cc1)C(=O)N[C@@H](Cc1c[nH]c2ccccc12)C(=O)N[C@@H](Cc1ccc(O)cc1)C(=O)N[C@H](CCSC)C(N)=O
As for B4, the “EC50 for [Ca2+]” value in assay [1] is < 0.01 µM; with FPR1, > 10 µM.

B5: peptide of SEQ ID NO 80 (peptide)
peptide: KWKYWYM
HELM: PEPTIDE1{[ac].K.W.K.Y.W.Y.[dM].[am]}$$$$V2.0
SMILES: CSCC[C@@H](NC(=O)[C@H](Cc1ccc(O)cc1)NC(=O)[C@H](Cc1c[nH]c2ccccc12)NC(=O)[C@H](Cc1ccc(O)cc1)NC(=O)[C@H](CCCCN)NC(=O)[C@H](Cc1c[nH]c2ccccc12)NC(=O)[C@H](CCCCN)NC(C)=O)C(N)=O
As for B5, the figures for the “EC50 for [Ca2+]” value (in assay [1]; with FPR1) were < 0.01 µM and > 10 µM, respectively.

B6: peptide of SEQ ID NO 82 (peptide)
peptide: RMRYWYM
HELM: PEPTIDE1{[ac].R.M.R.Y.W.Y.[dM].[am]}$$$$V2.0
SMILES: CSCC[C@H](NC(=O)[C@H](CCCNC(=N)N)NC(C)=O)C(=O)N[C@@H](CCCNC(=N)N)C(=O)N[C@@H](Cc1ccc(O)cc1)C(=O)N[C@@H](Cc1c[nH]c2ccccc12)C(=O)N[C@@H](Cc1ccc(O)cc1)C(=O)N[C@H](CCSC)C(N)=O
Turning to B6, the figures for the “EC50 for [Ca2+]” value (in assay [1]; with FPR1) were < 0.01 µM and > 10 µM, respectively.

B7: peptide of SEQ ID NO 83 (peptide)
peptide: RMRYWYM
HELM: PEPTIDE1{[CCCC(=O)[*:2]].R.M.R.Y.W.Y.[dM].[am]}$$$$V2.0
SMILES: CCCC(=O)N[C@@H](CCCNC(=N)N)C(=O)N[C@@H](CCSC)C(=O)N[C@@H](CCCNC(=N)N)C(=O)N[C@@H](Cc1ccc(O)cc1)C(=O)N[C@@H](Cc1c[nH]c2ccccc12)C(=O)N[C@@H](Cc1ccc(O)cc1)C(=O)N[C@H](CCSC)C(N)=O
Regarding B7, the figures for the “EC50 for [Ca2+]” value (in assay [1]; in the assay with FPR1) were < 0.01 µM and > 10 µM, respectively.
